This passage reports binding results from paper PMC12849132.

In the series the target is T1, PhaR (Ralstonia eutropha H16 (Cupriavidus necator)) (UniProt Q0KBP6).
T1 sequence: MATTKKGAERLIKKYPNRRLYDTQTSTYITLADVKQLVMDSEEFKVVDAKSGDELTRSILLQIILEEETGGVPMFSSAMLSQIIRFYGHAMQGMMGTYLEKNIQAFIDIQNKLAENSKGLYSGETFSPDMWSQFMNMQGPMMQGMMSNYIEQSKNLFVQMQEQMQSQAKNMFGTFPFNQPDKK
The series can be described thus: EMSA. The note with it: EMSA: 0-250 ng PhaR, ~75 ng FAM-DNA, 5 uL master mix (1.75 uL 10x TBE, 0.25 uL 10 mg/mL herring sperm DNA, 3 uL DNA), 30 min at 37 C, 7.5% native PAGE. In general terms: Mobility shift assays separate free from complexed probe on a gel.

“ATCGAATTCTGTATTCAGAGATCCGTTCCAAGCGTCTGGGGTGAAGTGCGCCCTACACATGTCATGCACTGCAACATTTCTGCGTAAGCACATGTAAATTTAGAGACGTACGATGCACTTTTATTGTCCTGTTTTAAAGACTTTTTGGGTATATACCTAGGGATCAAATTAGAGGAAACCCTCTAGGATTCGCACTCGGATGCT (double strand) [F1 (BS1, phaP3)]”: the binding entry is on record as “binds”.

On to “GGCGCTGTCAATCCGGAAGCCAAACCGAAGCGGATTCACGTTGCAATCTGTTGCGCGAATCCGTTCGATCAATCCACAGGAGATTTTGCATGTCCCCTTTTATGCCCGAGCAATTTGCTGCAGTGCAAAAGTCCAGTCTGAACCAACTGTTCGCGCTGACGAACATGGCTTTTGACGGCGGA (double strand) [F3 (BS3, phaP3)]”, for which the binding entry is reported as “binds more weakly”.

Consider “ATCGAATTCTGTATTCAGAGATCCGTTCCAAGCGTCTGGGGTGAAGTGCGCCCTACACATGTCATGCACTGCAACATTTCTGCGTAAGCACATGTAAATTTAGAGACGTACGATGCACTTTTATTGTCCTGTTTTAAAGACTTTTTGGGTATATACCTAGGGATCAAATTAGAGGAAACCCTCTAGGATTCGCACTCGGATGCTGCGCTGCAGGATTGGTGGCGCTGTCAATCCGGAAGCCAAACCGAAGCGGATTCACGTTGCAATCTGTTGCGCGAATCCGTTCGATCAATCCACAG (double strand) [F4 (BS1+BS2, phaP3)]”, for which the binding result was “binds”.

Take “ATCGAATTCACGATGCACTTTTATTGTCCTGTTTTAAAGACTTTTTGGGTATATACCTAGGGATCAAATTAGAGGAAACCCTCTAGGATTCGCACTCGGATGCTGCGCTGCAGGATTGGTGGCGCTGTCAATCCGGAAGCCAAACCGAAGCGGATTCACGTTGCAATCTGTTGCGCGAATCCGTTCGATCAATCCACAG (double strand) [F2 (BS2, phaP3)]”: the binding entry is listed as “binds more weakly”.
